# Assay results reported in patent publication US9915665.
# What was measured:
# murine DLL4 (murine) [1] = biological target: murine DLL4 (murine) (UniProt Q9JI71); experiment: Biacore (SPR), DVD-Ig and muDLL4
# murine DLL4 (murine) [2] = biological target: murine DLL4 (murine) (UniProt Q9JI71); experiment: Biacore (SPR), muDLL4; reference is the parental DVD
# human DLL4 (human) [3] = biological target: human DLL4 (human) (UniProt Q9NR61); experiment: Biacore (SPR), DVD-Ig and huDLL4
# human DLL4 (human) [4] = biological target: human DLL4 (human) (UniProt Q9NR61); experiment: Biacore (SPR), huDLL4; reference is the parental DVD
# UniProt Q9NR61, sequence (Q9NR61 27-524 limits assumed): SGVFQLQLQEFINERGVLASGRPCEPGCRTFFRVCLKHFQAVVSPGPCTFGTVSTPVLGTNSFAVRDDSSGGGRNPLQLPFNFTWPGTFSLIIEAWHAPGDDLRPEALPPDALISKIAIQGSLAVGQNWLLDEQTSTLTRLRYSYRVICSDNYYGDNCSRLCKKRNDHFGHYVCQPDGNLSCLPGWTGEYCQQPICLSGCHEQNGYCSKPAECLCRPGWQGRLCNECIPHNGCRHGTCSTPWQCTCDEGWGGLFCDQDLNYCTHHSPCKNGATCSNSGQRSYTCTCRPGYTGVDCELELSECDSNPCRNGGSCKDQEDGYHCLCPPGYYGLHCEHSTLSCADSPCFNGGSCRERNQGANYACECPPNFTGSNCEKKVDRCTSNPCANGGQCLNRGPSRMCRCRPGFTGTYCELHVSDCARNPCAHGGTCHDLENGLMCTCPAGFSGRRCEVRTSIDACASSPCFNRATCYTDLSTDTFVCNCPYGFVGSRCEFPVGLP
# UniProt Q9JI71, sequence (Q9JI71 27-525 limits assumed): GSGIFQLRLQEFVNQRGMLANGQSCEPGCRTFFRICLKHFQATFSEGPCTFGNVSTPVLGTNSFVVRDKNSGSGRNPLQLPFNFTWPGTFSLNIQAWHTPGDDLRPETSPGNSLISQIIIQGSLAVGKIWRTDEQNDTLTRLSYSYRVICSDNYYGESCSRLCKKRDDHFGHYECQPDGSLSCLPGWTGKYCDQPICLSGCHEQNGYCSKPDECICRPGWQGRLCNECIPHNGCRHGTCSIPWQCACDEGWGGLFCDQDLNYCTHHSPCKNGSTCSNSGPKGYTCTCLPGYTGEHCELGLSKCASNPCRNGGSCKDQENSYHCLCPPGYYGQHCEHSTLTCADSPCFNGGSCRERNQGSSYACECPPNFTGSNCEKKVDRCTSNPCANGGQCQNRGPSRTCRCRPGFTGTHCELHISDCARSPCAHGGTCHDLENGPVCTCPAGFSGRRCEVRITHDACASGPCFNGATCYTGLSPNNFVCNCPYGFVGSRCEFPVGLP
Kd (murine DLL4 (murine) [1]),koff (murine DLL4 (murine) [1]),kon (murine DLL4 (murine) [1]),KD ratio (parental DVD/AM DVD) (murine DLL4 (murine) [2]),Kd (human DLL4 (human) [3]),koff (human DLL4 (human) [3]),kon (human DLL4 (human) [3]),KD ratio (parental DVD/AM DVD) (human DLL4 (human) [4]),Binder
0.774 nM,0.000133 s⁻¹,171000 M⁻¹ s⁻¹,53.8 fold,–,–,–,–,"h1A11.1-A10-S3-SS-Anti-VEGF DVD-Ig (bispecific antibody, part only; not given: anti-VEGF domains, h1A11.1 VL, constant regions, part only) heavy, part: EVQLVESGGGLVQPGGSLRLSCAASGFTFRHFPMAWVRQAPGKGLEWVASISSSDGTSNYRDSVKGRFTISRDNAKSSLYLQMNSLRAEDTAVYYCARGYYNSPFAYWGQGTLVTVSSASTKGP light, part: TVAAP"
1.49 nM,0.000294 s⁻¹,197000 M⁻¹ s⁻¹,14.3 fold,1.04 nM,0.000136 s⁻¹,130000 M⁻¹ s⁻¹,19.1 fold,"h1A11.1-H3-S2-SS-Anti-VEGF DVD-Ig (bispecific antibody, part only; not given: anti-VEGF domains, h1A11.1 VL, constant regions, part only) heavy, part: EVQLVESGGGLVQPGGSLRLSCAASGFTFRNFPMAWVRQAPGKGLEWVASISSSDGTTNYRDSVKGRFTISRDNAKSSLYLQMNSLRAEDTAVYYCARGYYNSPFAYWGQGTLVTVSSASTKGP light, part: TVAAP"
1.57 nM,0.000266 s⁻¹,169000 M⁻¹ s⁻¹,13.6 fold,1.32 nM,0.000155 s⁻¹,117000 M⁻¹ s⁻¹,15.2 fold,"h1A11.1-G7-S2-SS-Anti-VEGF DVD-Ig (bispecific antibody, part only; not given: anti-VEGF domains, h1A11.1 VL, constant regions, part only) heavy, part: EVQLVESGGGLVQPGGSLRLSCAASGFTFNHFPMAWVRQAPGKGLEWVATISSSDWTPYYRDSVKGRFTISRDNAKNSLYLQMNSLRAEDTAVYYCARGYYNSPFAYWGQGTLVTVSSASTKGP light, part: TVAAP"
0.361 nM,0.000483 s⁻¹,1.34e+06 M⁻¹ s⁻¹,59.2 fold,0.556 nM,0.000319 s⁻¹,570000 M⁻¹ s⁻¹,35.9 fold,"h1A11.1-F7-S2-SS-Anti-VEGF DVD-Ig (bispecific antibody, part only; not given: anti-VEGF domains, h1A11.1 VL, constant regions, part only) heavy, part: EVQLVESGGGLVQPGGSLRLSCAASGFTFRHFPMTWVRQAPGKGLEWVASISSSDGTINYRDSVKGRFTISRDNAKNSLYLQMNSLRAEDTAVYYCARGYYNSPFAYWGQGTLVTVSSASTKGP light, part: TVAAP"
1.23 nM,0.000205 s⁻¹,167000 M⁻¹ s⁻¹,17.4 fold,0.923 nM,0.000106 s⁻¹,115000 M⁻¹ s⁻¹,21.6 fold,"h1A11.1-B9-S2-SS-Anti-VEGF DVD-Ig (bispecific antibody, part only; not given: anti-VEGF domains, h1A11.1 VL, constant regions, part only) heavy, part: EVQLVESGGGLVQPGGSLRLSCAASGFTFSHFPMAWVRQAPGKGLEWVASISSSDSTTNYRDSVKGRFTISRDNAKNSLYLQMNSLRAEDTAVYYCARGYYNSPFAYWGQGTLVTVSSASTKGP light, part: TVAAP"
0.451 nM,8.12e-05 s⁻¹,180000 M⁻¹ s⁻¹,92.2 fold,–,–,–,–,"h1A11.1-A04-S3-SS-Anti-VEGF DVD-Ig (bispecific antibody, part only; not given: anti-VEGF domains, h1A11.1 VL, constant regions, part only) heavy, part: EVQLVESGGGLVQPGGSLRLSCAASGFTFRHFPMAWVRQAPGKGLEWVATISSSDGATYYRDSVKGRFTISRDNAKSSLYLQMNSLRAEDTAVYYCARGYYNSPFAYWGQGTLVTVSSASTKGP light, part: TVAAP"
